Measurements as given in article PMC2229597.
Read-outs that look alike come from different tables or passages of the source.

Experiments:
[1] = biological target: CNGA2 mutant channel 2-Y321R (UniProt Q00195)
[2] = biological target: CNGA2 mutant channel 2-D316N (UniProt Q00195)
[3] = biological target: CNGA2 mutant channel 2-Y321C modified with MTSES (UniProt Q00195)
[4] = biological target: CNGA2 mutant channel 2-D316C (UniProt Q00195)
[5] = biological target: CNGA2 mutant channel 2-Y321C modified with MTSET (UniProt Q00195)
[6] = biological target: CNGA3 mutant channel 3-N361D (UniProt Q29441)
[7] = biological target: CNGA3 double mutant channel 3-N361D/R366Y (UniProt Q29441)
[8] = biological target: CNGA3 mutant channel 3-R366Y (UniProt Q29441)
[9] = biological target: homomeric CNG channel composed of olfactory CNGA2 (UniProt Q00195); assay: patch-clamp electrophysiology
[10] = biological target: homomeric CNG channel composed of olfactory CNGA2 (UniProt Q00195); assay: patch-clamp electrophysiology; remark: listed apart in the source
[11] = biological target: CNGA2 mutant channel 2-T308S (UniProt Q00195); assay: patch-clamp electrophysiology
[12] = biological target: CNGA2 mutant channel 2-E325K (UniProt Q00195); assay: patch-clamp electrophysiology
[13] = biological target: heteromeric CNG channel containing CNGA2 and CNGA4 (UniProt Q00195); assay: patch-clamp electrophysiology
[14] = biological target: CNGA2 mutant channel 2-S301F (UniProt Q00195); assay: patch-clamp electrophysiology
[15] = biological target: homomeric CNG channel composed of olfactory CNGA2 (UniProt Q00195); assay: patch-clamp electrophysiology; remark: listed apart in the source

## Pseudechetoxin (natural protein)
[1]
  inhibition of current by 500 nM PsTx at −60 mV, outside-out patches from oocytes: < 5%
[2]
  inhibition of current by 500 nM PsTx at −60 mV, outside-out patches from oocytes: < 5%
[3]
  block of current by 500 nM PsTx after modification of the patch with MTSES: 93%
[4]
  block of current by 500 nM PsTx, outside-out patches from oocytes: 33%
[5]
  block of current by 500 nM PsTx after modification of the patch with MTSET: 81%
[6]
  inhibition of current by 500 nM PsTx, outside-out patches from oocytes (n = 9): 15%
[7]
  inhibition of current by 500 nM PsTx, outside-out patches from oocytes (n = 4): 84%
[8]
  inhibition of current by 500 nM PsTx, outside-out patches from oocytes: 2%
[9]
  Ki: 180 nM
[10]
  Ki: 24 nM
[11]
  Ki: 16 nM
[12]
  Ki: 123 nM
[13]
  Kd: 100 nM
[14]
  Ki: 16 nM
[15]
  Ki: 32 nM
  time constant of wash-off (dissociation): 67 s
